Publication PMC11459465

Legend:
[1] = molecular target: JR-FL IDL trimer (HIV-1 strain JR-FL (clade B)); assay: cryo-EM structure
[2] = molecular target: WITO IDL trimer (HIV-1 strain WITO (clade B)); assay: cryo-EM structure
[3] = molecular target: BG505 IDL trimer (HIV-1 strain BG505 (clade A)); assay: negative-staining electron microscopy
[4] = molecular target: BG505 IDL trimer (HIV-1 strain BG505 (clade A)); assay: cryo-EM structure

For JR-FL IDL trimer (complex), the stoichiometry N [1] was 3.
Work on WITO IDL trimer (complex) yielded a stoichiometry N [2] of 3.
Substance BG505 IDL trimer (complex) has a stoichiometry N [3] of 3 and a stoichiometry N [4] of 3.
